{
  "source": "patent US20060142189A1",
  "about": "(MOUNT SINAI SCHOOL OF MEDICINE OF NEW YORK UNIVERSITY, published 2006)",
  "molecular_target": "ankyrin B (endogenous in ND-7 cells)",
  "test": "cell-based or functional assay",
  "note": "Ends that are not written are not given here. * marks the point of attachment. Biotin = O=C1N[C@H]2[C@H](CS[C@H]2CCCCC(=O)*)N1",
  "data": [
    {"binder": "Biotin-RQIKIWFQNRRMKWKKQFNEDGSFIGQF", "note": "[AP-YF peptide]", "values": [
      {"measurement": "velocity of L1-CAM directed movement on the cell surface, against cells treated with control peptide or untreated cells", "result": 2, "unit": "fold"}
    ]}
  ]
}
